Positions count from the first letter of the chain named. Names may count otherwise.
B1: CD3 × CD33-BspAb48 (bispecific antibody)
chain 1: QVTLKESGPGILQPSQTLSLTCSFSGFSLSTFGMGVGWIRQPSGKCLEWLAHIWWDDDKYYNPALKSRLTISKDTSKNQVFLKIANVDTADTATYYCARLGYYPYWFFDVWGTGTTVTVSSGGGGSGGGGSGGGGSGGGGSNFMLTQPHSVSESPGKTVTIACTRSSGSIASNYVQWYQQRPGSSPTTVIYEDNQRPSGVPDRFSGSIDSSSNSASLTISGLKTEDEADYYCQSYDSSNQVFGCGTKLTVLDKTHTCPPCPAPEFEGGPSVFLFPPKPKDTLMISRTPEVTCVVVDVSHEDPEVKFNWYVDGVEVHNAKTKPREEQYNSTYRVVSVLTVLHQDWLNGKEYKCKVSNKALPASIEKTISKAKGQPREPQVYTLPPCREEMTKNQVSLWCLVKGFYPSDIAVEWESNGQPENNYKTTPPVLDSDGSFFLYSKLTVDKSRWQQGNVFSCSVMHEALHNHYTQKSLSLSPGK
chain 2: EVQLVQSGAEVKKPGSSVKVSCKASGYTITDSNIHWVRQAPGQSLEWIGYIYPYNGGTDYNQKFKNRATLTVDNPTNTAYMELSSLRSEDTAFYYCVNGNPWLAYWGQGTLVTVSSASTKGPSVFPLAPSSKSTSGGTAALGCLVKDYFPEPVTVSWNSGALTSGVHTFPAVLQSSGLYSLSSVVTVPSSSLGTQTYICNVNHKPSNTKVDKRVEPKSCDKTHTCPPCPAPEFEGGPSVFLFPPKPKDTLMISRTPEVTCVVVDVSHEDPEVKFNWYVDGVEVHNAKTKPREEQYNSTYRVVSVLTVLHQDWLNGKEYKCKVSNKALPASIEKTISKAKGQPREPQVCTLPPSREEMTKNQVSLSCAVKGFYPSDIAVEWESNGQPENNYKTTPPVLDSDGSFFLVSKLTVDKSRWQQGNVFSCSVMHEALHNRFTQKSLSLSPGK
chain 3: DIQLTQSPSTLSASVGDRVTITCRASESLDNYGIRFLTWFQQKPGKAPKLLMYAASNQGSGVPSRFSGSGSGTEFTLTISSLQPDDFATYYCQQTKEVPWSFGQGTKVEVKRTVAAPSVFIFPPSDEQLKSGTASVVCLLNNFYPREAKVQWKVDNALQSGNSQESVTEQDSKDSTYSLSSTLTLSKADYEKHKVYACEVTHQGLSSPVTKSFNRGEC
B2: CD3 × CD33-BspAb62 (bispecific antibody)
scFv-Fc: NFMLTQPHSVSESPGKTVTISCTRSSGSIASNYVQWYQQRPGSSPTTVIYEDNQRPSGVPDRFSGSIDSSSNSASLTISGLKTEDEADYYCQSYDSSNHVFGCGTKLTVLGGGGSGGGGSGGGGSGGGGSEVQLVESGGGLVQPGGSLRLSCAASGFTFSRYSMNWVRQAPGKCLEWVSYISSSSSSIYYADSVKGRFTISRDNAKNSLYLQMNSLRDEDTAVYYCARDRRATLDYWGQGTLVTVSSGGGGSDKTHTCPPCPAPEFEGGPSVFLFPPKPKDTLMISRTPEVTCVVVDVSHEDPEVKFNWYVDGVEVHNAKTKPREEQYNSTYRVVSVLTVLHQDWLNGKEYKCKVSNKALPASIEKTISKAKGQPREPQVYTLPPCREEMTKNQVSLWCLVKGFYPSDIAVEWESNGQPENNYKTTPPVLDSDGSFFLYSKLTVDKSRWQQGNVFSCSVMHEALHNHYTQKSLSLSPGK
heavy: B1 chain 2
light: B1 chain 3
B3: CD3 × CD33-BspAb66 (bispecific antibody, human IgG1, kappa)
scFv: EVQLVESGGGLVQPGRSLRLSCAASGFTFDDYAMHWVRQAPGKGLEWVSGISWNSGSIGYADSVKGRFTISRDNAKNSLYLQMNSLRAEDTALYYCAKDSRGYGDYRLGGAYWGQGTLVTVSSGGGGSGGGGSGGGGSGGGGSEIVMTQSPATLSVSPGERATLSCRASQSVSSNLAWYQQKPGQAPRLLIYGASTRATGIPARFSGSGSGTEFTLTISSLQSEDFAVYYCQQYNNWPWTFGQGTKVEIKTSGPGGPDKTHTCPPCPAPEFEGGPSVFLFPPKPKDTLMISRTPEVTCVVVDVSHEDPEVKFNWYVDGVEVHNAKTKPREEQYNSTYRVVSVLTVLHQDWLNGKEYKCKVSNKALPASIEKTISKAKGQPREPQVYTLPPCREEMTKNQVSLWCLVKGFYPSDIAVEWESNGQPENNYKTTPPVLDSDGSFFLYSKLTVDKSRWQQGNVFSCSVMHEALHNHYTQKSLSLSPGK
heavy: B1 chain 2
light: B1 chain 3
notes: also called CD3δε-specific control antibody scFv-Fc knob/TM x gemtuzumab
B4: CD3 × CD33-BspAb61 (bispecific antibody)
scFv-Fc: NFMLTQPHSVSESPGKTVTISCTRSSGSIASNYVQWYQQRPGSSPTTVIYEDNQRPSGVPDRFSGSIDSSSNSASLTISGLKTEDEADYYCQSFDNSNRVFGCGTKLTVLGGGGSGGGGSGGGGSGGGGSEVQLVESGGGLVKPGGSLRLSCAASGFTFSRYSMNWVRQAPGKCLKWVSSISSSGSYKYYADSVKGRFTISRDNAKNSLYLQMNSLRAEDTAVYYCAREPPTLGMDYWGQGTLVTVSSGGGGSDKTHTCPPCPAPEFEGGPSVFLFPPKPKDTLMISRTPEVTCVVVDVSHEDPEVKFNWYVDGVEVHNAKTKPREEQYNSTYRVVSVLTVLHQDWLNGKEYKCKVSNKALPASIEKTISKAKGQPREPQVYTLPPCREEMTKNQVSLWCLVKGFYPSDIAVEWESNGQPENNYKTTPPVLDSDGSFFLYSKLTVDKSRWQQGNVFSCSVMHEALHNHYTQKSLSLSPGK
heavy: B1 chain 2
light: B1 chain 3
B5: CD3 × CD33-BspAb50 (bispecific antibody)
scFv-Fc: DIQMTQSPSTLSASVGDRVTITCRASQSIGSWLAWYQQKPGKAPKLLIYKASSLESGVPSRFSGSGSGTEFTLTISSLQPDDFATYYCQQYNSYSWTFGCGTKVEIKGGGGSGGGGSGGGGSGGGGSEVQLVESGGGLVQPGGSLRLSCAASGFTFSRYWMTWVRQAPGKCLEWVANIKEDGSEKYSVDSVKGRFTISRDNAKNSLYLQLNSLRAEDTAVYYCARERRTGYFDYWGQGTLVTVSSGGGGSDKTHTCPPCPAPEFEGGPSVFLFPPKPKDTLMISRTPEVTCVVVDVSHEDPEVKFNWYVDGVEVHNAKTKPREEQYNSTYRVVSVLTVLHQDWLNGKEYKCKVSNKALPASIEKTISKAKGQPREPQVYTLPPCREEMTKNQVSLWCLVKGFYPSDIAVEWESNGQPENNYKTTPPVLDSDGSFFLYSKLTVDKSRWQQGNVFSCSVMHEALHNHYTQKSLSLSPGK
heavy: B1 chain 2
light: B1 chain 3
B6: Control Humanized anti-CD3 (high affinity) scFv-Fc knob/TM x gemtuzumab (bispecific antibody)
scFv: EVQLVESGGGLVQPGGSLRLSCAASGFTFSTYAMNWVRQAPGKGLEWVGRIRSKYNNYATYYADSVKGRFTISRDDSKNTLYLQMNSLRAEDTAVYYCVRHGNFGDSYVSWFAYWGQGTLVTVSSGKPGSGKPGSGKPGSGKPGSQAVVTQEPSLTVSPGGTVTLTCGSSTGAVTTSNYANWVQQKPGKSPRGLIGGTNKRAPGVPARFSGSLLGGKAALTISGAQPEDEADYYCALWYSNHWVFGGGTKLTVLGGGGSDKTHTCPPCPAPEFEGGPSVFLFPPKPKDTLMISRTPEVTCVVVDVSHEDPEVKFNWYVDGVEVHNAKTKPREEQYNSTYRVVSVLTVLHQDWLNGKEYKCKVSNKALPASIEKTISKAKGQPREPQVYTLPPCREEMTKNQVSLWCLVKGFYPSDIAVEWESNGQPENNYKTTPPVLDSDGSFFLYSKLTVDKSRWQQGNVFSCSVMHEALHNHYTQKSLSLSPGK
heavy: B1 chain 2
light: B1 chain 3
B7: Control Humanized anti-CD3 (low affinity) scFv-Fc knob/TM x gemtuzumab (bispecific antibody)
scFv: B6 scFv with A113D
heavy: B1 chain 2
light: B1 chain 3
B8: Gemtuzumab (antibody, V domains shown)
VH: EVQLVQSGAEVKKPGSSVKVSCKASGYTITDSNIHWVRQAPGQSLEWIGYIYPYNGGTDYNQKFKNRATLTVDNPTNTAYMELSSLRSEDTAFYYCVNGNPWLAYWGQGTLVTVSS
VL: DIQLTQSPSTLSASVGDRVTITCRASESLDNYGIRFLTWFQQKPGKAPKLLMYAASNQGSGVPSRFSGSGSGTEFTLTISSLQPDDFATYYCQQTKEVPWSFGQGTKVEVKR
notes: the heavy chain entry carries the hole, H435R/Y436F and L234F/L235E/P331S changes, which the control may not have; also called anti-CD33 control antibody

Key:
CD33 on KILR-HL60 cells [1] = biological target: T1, CD33 on KILR-HL60 cells (UniProt P20138 18-364, limits assumed); test: flow cytometry on KILR-HL60 (CD33 expressing) cells, antibody at 1 ug/ml
T1 construct: whole, on cells; Target of the gemtuzumab arm; also called CD33 expressing cells

CD33 on KILR-HL60 cells [2] = biological target: T1, CD33 on KILR-HL60 cells; test: flow cytometry on KILR-HL60 (CD33 expressing) cells, antibody at 10 ug/ml
[3] = biological target: T2, CD3 on Jurkat wild-type cells (UniProt P07766 23-207; P04234 22-171; P09693 23-182); test: flow cytometry on Jurkat WT cells, antibody at 1 ug/ml
T2 construct: whole, on cells; also called Jurkat WT

[4] = biological target: T2, CD3 on Jurkat wild-type cells; test: flow cytometry on Jurkat WT cells, antibody at 10 ug/ml

T1 sequence (P20138 18-364 limits assumed): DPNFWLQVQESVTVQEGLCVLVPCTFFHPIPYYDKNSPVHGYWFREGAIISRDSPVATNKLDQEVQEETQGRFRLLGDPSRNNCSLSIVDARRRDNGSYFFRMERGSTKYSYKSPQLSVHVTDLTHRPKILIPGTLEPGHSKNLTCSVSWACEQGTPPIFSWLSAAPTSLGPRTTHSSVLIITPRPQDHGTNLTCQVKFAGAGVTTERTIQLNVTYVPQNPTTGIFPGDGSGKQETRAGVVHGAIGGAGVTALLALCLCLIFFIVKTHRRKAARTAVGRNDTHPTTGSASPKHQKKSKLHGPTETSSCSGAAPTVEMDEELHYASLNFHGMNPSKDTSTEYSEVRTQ
T2 sequence (P07766 23-207, chain 1 of 3): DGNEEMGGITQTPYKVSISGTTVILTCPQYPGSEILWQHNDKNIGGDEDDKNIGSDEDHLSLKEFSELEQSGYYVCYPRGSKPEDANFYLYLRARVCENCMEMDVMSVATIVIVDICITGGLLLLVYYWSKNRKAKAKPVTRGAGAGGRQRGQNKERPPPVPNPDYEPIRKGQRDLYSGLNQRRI
T2 sequence (P04234 22-171, chain 2 of 3): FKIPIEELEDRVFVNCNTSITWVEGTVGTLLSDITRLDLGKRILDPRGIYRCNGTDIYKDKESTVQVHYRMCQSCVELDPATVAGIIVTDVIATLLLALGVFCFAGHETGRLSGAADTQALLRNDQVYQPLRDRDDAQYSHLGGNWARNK
T2 sequence (P09693 23-182, chain 3 of 3): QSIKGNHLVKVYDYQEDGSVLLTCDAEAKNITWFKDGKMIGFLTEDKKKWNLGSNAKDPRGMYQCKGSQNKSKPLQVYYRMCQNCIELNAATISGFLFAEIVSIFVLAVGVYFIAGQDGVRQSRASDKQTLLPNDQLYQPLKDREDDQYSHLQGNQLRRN

| Binder | flow cytometry signal (CD33 on KILR-HL60 cells [1]) | flow cytometry signal (CD33 on KILR-HL60 cells [2]) | flow cytometry signal [3] | flow cytometry signal [4] |
| --- | --- | --- | --- | --- |
| B1 | 566000 | 483000 | 4140 | 10800 |
| B2 | 295000 | 595000 | 62500 | 59000 |
| B3 | 569000 | 499000 | 6660 | 23100 |
| B4 | 621000 | 538000 | 95600 | 84800 |
| B5 | 475000 | 465000 | 9700 | 33900 |
| B6 | 544000 | 648000 | 37900 | 38400 |
| B7 | 535000 | 623000 | 2620 | 3230 |
| B8 | 321000 | 351000 | 2570 | 2570 |
